From article PMC6056499, “A systematic dissection of sequence elements determining β-Klotho and FGF interaction and signaling” (Scientific Reports, 2018)

Target: mature human FGF21 (UniProt Q9NSA1)
Experiment: solid-phase binding assay
Details: β-Klotho captured from conditioned media; parent: est. 1.0; read off a plot

Substance | ratio to parent
human β-Klotho extracellular domain (aa1–992) fused with a 6 × His tag at the C-terminus (from UniProt Q86Z14) 389G-R | 3.5
human β-Klotho extracellular domain (aa1–992) fused with a 6 × His tag at the C-terminus (from UniProt Q86Z14) 531E-A | 4.5
human β-Klotho extracellular domain (aa1–992) fused with a 6 × His tag at the C-terminus (from UniProt Q86Z14) 431T-R | 10
human β-Klotho extracellular domain (aa1–992) fused with a 6 × His tag at the C-terminus (from UniProt Q86Z14) 861R-A | 15
human β-Klotho extracellular domain (aa1–992) fused with a 6 × His tag at the C-terminus (from UniProt Q86Z14) 862L-A | 6
human β-Klotho extracellular domain (aa1–992) fused with a 6 × His tag at the C-terminus (from UniProt Q86Z14) 862L-R | 25
human β-Klotho extracellular domain (aa1–992) fused with a 6 × His tag at the C-terminus (from UniProt Q86Z14) 380K-A | 35
human β-Klotho extracellular domain (aa1–992) fused with a 6 × His tag at the C-terminus (from UniProt Q86Z14) 437K-R | 5
human β-Klotho extracellular domain (aa1–992) fused with a 6 × His tag at the C-terminus (from UniProt Q86Z14) 381P-R | 21
human β-Klotho extracellular domain (aa1–992) fused with a 6 × His tag at the C-terminus (from UniProt Q86Z14) 381P-A | 5
